Experimental data published in patent US20050069542A1 (Human Genome Sciences, published 2005).
Positions count from the first letter of the chain named.

T1: flag-tagged soluble TL3 (amino acids 105-251 of SEQ ID NO:234) (Homo sapiens (Human), UniProt O75888 105-250)
T1 construct: Heterologous flag-tagged control protein, immobilized in the ELISA; also called flagged tagged TL-3; not shown: Flag tag
T1 sequence: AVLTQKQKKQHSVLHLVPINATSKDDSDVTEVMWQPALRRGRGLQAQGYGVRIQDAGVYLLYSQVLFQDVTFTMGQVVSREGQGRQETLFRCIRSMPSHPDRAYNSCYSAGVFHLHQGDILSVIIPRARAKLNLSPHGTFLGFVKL

B1: GMBC642 (scFv)
scFv: QVQLQQSGAEVKKPGASVKVSCKASGYTFTIHYMHWVRQAPGQGLEWMGIINPGDGSTSYAQNFQGRVTMTRDTSTSTVYMELSSLRSEDTAVYYCARAGRTVTSHFDYWGRGTLATVSSGGGGSGGGGSGGGGSSELTQDPAVSVALGQTVRITCQGDSLRSYYASWYQQKPGQAPVLVIYGKNNRPSGIPDRFSGSSSGNTASLTITGAQAEDEADYYCNSRDSSGNHVVFGGGTKLTVLG
B2: GMBC646 (scFv)
scFv: GVQLVQSGAEVKKPGASVKVSCKASGYTFTSYYIHWVRQAPGQGLEWMGIINPSGGTTSYAQKFQGRVTMTRDTSTSTVYMELSSLRSEDTAMYYCARERFLRGMDVWGRGTMVTVSSGGGGSGGGGSGGGGSDIVMTQSPSTLSASVGDRVTITCRASQGISSWLAWYQQKPGRAPKVLIYKASTLESGVPSRFSGSGSGTDFTLTISSLQPEDFATYYCQQSYSTPWTFGQGTKLEIKR
B3: GMBC652 (scFv)
scFv: GVQLVQSGGVVVKPGGSLRLSCAASGFTFSDAWMNWVRQAPGKGLEWVGRIKSKGSGGTTDYAAPVKGRFTISRDDSENTLYLQMNSLKTEDTAVYYCTWDHSYYYDMAVWGRGTMVTASSGGGGSGGGGSGGGGSQSVLTQPASVSGSPGQSITISCTGTSSDVGGYNYVSWYQQHPGKAPKFMIYDVSKRPSGVSNRFSGSKSGNTASLTISGVQAEDEADYYCSSYTSASTVIFGGGTKLTVLG
B4: GMBC606 (scFv)
scFv: EVQLVQSGGGVVQPGGSLRLSCAASGFTFSSYGMHWVRQAPGKGLEWVAFIRYDGSNKYYADSVKGRFTISRDNSKNTLYLQMNSLRAEDTAVYYCAKSSSFANAFDIWGQGTTVTVSSGGGGSGGGGSGGGGSSELTQDPAVSVALGQTVRITCQGDSLRSYYASWYQQKPGQAPVLVIYGKNNRPSGIPDRFSGSSSGNTASLTITGAQAEDEADYYCNSRDSSGNHVVFGGGTKLTVLG
B5: GMBC725 (scFv)
scFv: B4 scFv with S7T, R52L, F102S, N104S, G110R, G112R
B6: GMBC655 (scFv)
scFv: EVQLVESGGGLVKPGGSLRLSCAASGFTFSSYGMSWIRQAPGKGQEWVSAISGSGGSAYYADSVKGRFTISRDNSKNTLYLQMNSLRAEDTAVYYCAKAYSSEDYWGRGTMVTVSSGGGGSGGGGSGGGGSNIQMTQSPSFLSASVGDRVTITCRASQGINNYLAWYQQKPGRAPKLLIYAASSLQSGVPSRFSGSGSGTDFTLTISSLQPDDFATYYCQQYSNYPLTFGGGTKLEIKR
B7: GMBC662 (scFv)
scFv: GVQLVQSGAEVKKPGSSVKVSCKASGGTFSSYTISWVRQAPGQGLEWMGRIIPILGIANYAQKFQGRVTITADKSTSTAYMELSSLRSEDTAVYYCAREKLRDFQHWGQGTLVTVSSGGGGSGGGGSGGGGSQSVLTQPASVSGSPGQSITISCTGTSSDVGGYNYVSWYQQHPGKAPKLMIYEGSKRPSGISNRFSGSKSGNTASLTISRLQAEDEADYYCSSYTTRSTRVFGGGTKLTVLG
B8: GMBC609 (scFv)
scFv: QVQLVESGGGLVKPGESLRLSCEASGFEFNYAWMSWVRQAPGKGLEWVGRSRSEASGGTTDYAAPLQDRFTISRDDSKNTLYLQVNSLKIEDTGVYFCKWEKSEYYGMDVWGRGTPVTVSSGGGGSGGGGSGGGGSQSVLTQPPSVSAAPGQKVTISCSGSTSNIGNNYVSWYQQHPGKAPKLMIYDVSKRPSGVPDRFSGSKSGNSASLDISGLQSEDEADYYCAAWDDSLSEFLFGTGTKLTVLG
B9: GMBC666 (scFv)
scFv: B8 scFv with Q1E, V12A, R113K, P116M
B10: GMBC669 (scFv)
scFv: QVQLVESGGALVKPGGSLRLSCAASGFTFSDAWMNWVRQAPGKGLEWVGRIKSKGSGGTIDYAAPVKDRFTISRDDSKNTLYLQMNSLKTEDTALYYCTWDWDFYYGMNVWGQGTLVTVSSGGGGSGGGGSGGGGSQSVLTQPPSASGSPGQSVTISCTGTSSDVGGYNYVSWYQQHPGKAPKFMIYDVSKRPSGVSNRFSGSKSGNTASLTISGVQAEDEADYYCSSYTSASTVIFGGGTKLTVLG
B11: GMBC673 (scFv)
scFv: EVQLVESGGGLVQTGGSLRLSCAASGFPIGSHWMSWVRQSPGKGLEWVASIKQDGREKHFVDSVKGRFGISRDNAKDSLYLQMNSLRIEDTAVYYCARETYGGYYYYFMDVWGRGTLVTVSSGGGGSGGGGSGGGGSSELTQDPAVSVALGQTVRITCQGDSLRSYYASWYQQKPGQAPVLVIYGKNNRPSGIPDRFSGSSSGNTASLTITGAQAEDEADYYCQTWGPGIRVFGGGTKLTVLG
B12: GMBC678 (scFv)
scFv: B10 scFv with Q1E, A10G
B13: GMBC681 (scFv)
scFv: QVQLVQSGGGVVQPGGSLRLSCAASGFTFSSYGMHWVRQAPGKGLEWVAFIRYDGSNKYYADSVKGRFTISRDNSKNTLYLQMNSLRAEDTAVYYCAKGGTGYFDLWGRGTLVTVSSGGGGSGGGGSGGGGSDIQMTQSPSTLSASIGDRVTITCRASEGIYHWLAWYQQKPGKAPKLLIYKASSLASGAPSRFSGSGSGTDFTLTISSLQPDDFATYYCQQYSNYPLTFGGGTKLEIKR
B14: GMBC608 (scFv)
scFv: EVQLVQSGGGLVQPGRSLRLSCAASGFTFSDSYMTWIRQAPGEGLEFVSYISSGSSTTYYTDSVKGRFTISRDNSKNTLYLQMNSLRPEDTAVYYCARRSISSDYYSYYLDVWGKGTLVTVSSGGGGSGGGGSGGGGSSELTQDPAVSVALGQTVRITCQGDSLRSYYASWYQQKPGQAPVLVIYGKNNRPSGIPDRFSGSSSGNTASLTITGAQAEDEADYYCNSRDSSGNHVVFGGGTKLTVLG
B15: GMBC683 (scFv)
scFv: EVQLVESGGGLVQPGRSLRLSCAASGFTFSSYGMHWVRQAPGKGLEWVAVISYDGSNKYYADSVKGRFTISRDNSKNTLYLQMNSLRAEDTAVYYCAKRAAAGTLDYWGQGTTVTVSSGGGGSGGGGSGGGGSSELTQDPAVSVALGQTVRITCQGDSLRSYYASWYQQKPGQAPVLVIYGKNNRPSGIPDRFSGSSSGNTASLTITGAQAEDEADYYCNSRDSSGNHVVFGGGTKLTVLG
B16: GMBC687 (scFv)
scFv: QVQLVQSGAEVKKPGSSVKVSCKAPGDTFSNYIFNWVRQAPGQGLEWMGGIIPKFGTVNDAHKFQDRVTIAADESTNTASMELSSLTSEDTAVYYCACEPIPKDYGDVNGLEIWGKGTMVTVSSGGGGSGGGGSGGGGSDIQMTQSPSTLSASIGDRVTITCRASEGIYHWLAWYQQKPGKAPKLLIYKASSLASGAPSRFSGSGSGTDFTLTISSLQPDDFATYYCQQYSNYPLTFGGGTKLEIKR
B17: GMBC689 (scFv)
scFv: B10 scFv with A10G, I236V
B18: GMBC691 (scFv)
scFv: EVQLVQSGAEVKKPGASMKVSCKTSGDTFNGFYVHWVRQAPGQGLEWMGRINPNGGGTNYAQKFQGRVTMTRDTSMNTAYMELRSLRSDDTAVYYCARDLFYDFWSDYYRNDQYYYMDVWGRGTLVTVSSGGGGSGGGGSGGGGSSELTQDPAVSVALGQTVRITCQGDSLRSYYASWYQQKPGQAPVLVIYGKNNRPSGIPDRFSGSSSGNTASLTITGAQAEDEADYYCNSRDSSGNHVVFGGGTKLTVLG
B19: GMBC696 (scFv)
scFv: EVQLVQSRAEVKKPGASVKVSCKTSGYTFNGYYIHWVRQAPGQGLEWMGWIDPINSVTNYAQNFQGRVTMTRDTSINTAYMELSRLTSDDTAVYYCARARVSTILQYWGQGTLVTVSSGGGGSGGGGSGGGGSSELTQDPAVSVALGQTVRITCQGDSLRSYYASWYQQKPGQAPVLVIYGKNNRPSGIPDRFSGSSSGNTASLTITGAQAEDEADYYCNSRDSSGNHVVFGGGTKLTVLG
B20: GMBC730 (scFv)
scFv: QVQLVESGGDSVKPGGSLRLSCAGSGFTFSDAWMNWVRQAPGKGLEWVGRMKSKGSGGTRDYAAPVNGRFTISRDDSKNTLYLQMNSLNTEDTGVYYCTWDWDFYYGMDVWGKGTTVTVSSGGGGSGGGGSGGGGSQSVLTQPASVSGSPGQSITISCTGTSSDVGGYNYVSWYQQHPGKAPKLMIYEGSKRPSGVSNRFSGSKSGNTASLTISGLQAEDEADYYCSSYTTRSTRVFGGGTKLTVLG

Target: T1, flag-tagged soluble TL3 (amino acids …)
Test: phage ELISA on immobilized flag-tagged soluble TL3
Description: The individual phage isolates in the panel of phage, each phage expressing a unique scFv that bound to flag-tagged GMAD, were tested to ensure specificity for GMAD using an ELISA assay. The scFvs were tested in an ELISA for their ability to bind a heterologous flag-tagged protein, in this case—immobilized soluble TL3 (amino acids 105-251 of SEQ ID NO:234, GenBank Accesion Number NP_{—}003799, also described in International Patent Application Publication Number WO97/33902 and WO2001/96528 which are herein incorporated by reference in their entireties).

Row | Binder | binding result
1 | B1 | no binding
2 | B2 | no binding
3 | B3 | no binding
4 | B4 | no binding
5 | B5 | no binding
6 | B6 | no binding
7 | B7 | no binding
8 | B8 | no binding
9 | B9 | no binding
10 | B10 | no binding
11 | B11 | no binding
12 | B12 | no binding
13 | B13 | no binding
14 | B14 | no binding
15 | B15 | no binding
16 | B16 | no binding
17 | B17 | no binding
18 | B18 | no binding
19 | B19 | no binding
20 | B20 | no binding
